Measurements reported in patent publication US20130129739A1 (Bayer, published 2013).

T1: extracellular domain of human PRLR (monomeric, soluble) (human, UniProt P16471 25-234)
T1 construct: also called ECD-PRLR; ECD of PRLR
T1 sequence: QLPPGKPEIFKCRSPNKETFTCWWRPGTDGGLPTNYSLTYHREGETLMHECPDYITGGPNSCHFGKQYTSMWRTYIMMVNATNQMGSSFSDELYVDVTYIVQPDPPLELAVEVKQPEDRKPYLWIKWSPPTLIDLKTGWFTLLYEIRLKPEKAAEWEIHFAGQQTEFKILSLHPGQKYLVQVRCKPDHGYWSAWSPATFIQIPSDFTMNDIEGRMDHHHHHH


Biological target: T1, extracellular domain of human PRLR …
Assay: ELISA: plate coated with human PRLR extracellular domain, Fab-containing E. coli supernatant, anti-flag-HRP, Amplex Red
Method: 96 well microtiter plates were coated with 1 μg per milliliter of human PRLR. Plates were incubated over night at 4° C. After blocking with PBS buffer containing 3% bovine serum albumin, normalized E. coli-derived supernatants containing the Fab variants were added. Detection of formed complexes occurred via the addition of an anti-flag antibody (Sigma, A8592) labeled with horseradish peroxidase.

binding result	Binder
binds	005-C04-37-7 (Fab, V domains shown, Maturated 005-C04 variant; Fab in E. coli supernatant, flag-detected) VH: EVQLLESGGGLVQPGGSLRLSCAASGFTFSSYWWHWVRQAPGKGLEWVSDISSLSSYTGYADSVKGRFTISRDNSKNTLYLQMNSLRAEDTAVYYCARGLDARRMDYWGQGTLVTVTS VL: QSVLTQPPSASGTPGQRVTISCTGSSSNIGYGYVVHWYQQLPGTAPKLLIYRNNWRPSGVPDRFSGSKSGTSASLAISGLRSEDEADYYCAAWDDSLNGWLFGGGTKLTVLG
binds	005-C04-52-29-7 (Fab, V domains shown, Maturated 005-C04 variant; Fab in E. coli supernatant, flag-detected) VH: EVQLLESGGGLVQPGGSLRLSCAASGFTFSSYWMHWVRQAPGKGLEWVSDISRASSYTNYADSVKGRFTISRDNSKNTLYLQMNSLRAEDTAVYYCARGLDARRMDYWGQGTLVTVTS VL: QSVLTQPPSASGTPGQRVTISCTGSSSNIGAGYVVHWYQQLPGTAPKLLIYRNNQRPSGVPDRFSGSKSGTSASLAISGLRSEDEADYYCAAWDDSLNGWLFGGGTKLTVLG
binds	005-C04-50-28-3 (Fab, V domains shown, Maturated 005-C04 variant; Fab in E. coli supernatant, flag-detected) VH: EVQLLESGGGLVQPGGSLRLSCAASGFTFSSYWMHWVRQAPGKGLEWVSDRSSASSYTNYADSVKGRFTISRDNSKNTLYLQMNSLRAEDTAVYYCARGLDARRMDYWGQGTLVTVTS VL: QSVLTQPPSASGTPGQRVTISCTGSSSNIGAGYVVHWYQQLPGTAPKLLIYRNNQRPSGVPDRFSGSKSGTSASLAISGLRSEDEADYYCAAWDDSLNGWLFGGGTKLTVLG
binds	005-C04-40-4 (Fab, V domains shown, Maturated 005-C04 variant; Fab in E. coli supernatant, flag-detected) VH: EVQLLESGGGLVQPGGSLRLSCAASGFTFSSYWNHWVRQAPGKGLEWVSDMARLSSYTNYADSVKGRFTISRDNSKNTLYLQMNSLRAEDTAVYYCARGLDARRMDYWGQGTLVTVTS VL: QSVLTQPPSASGTPGQRVTISCTGSSSNIGYGYVVHWYQQLPGTAPKLLIYRNNVRQSGVPDRFSGSKSGTSASLAISGLRSEDEADYYCAAWDDSLNGWLFGGGTKLTVLG
binds	005-C04-L2-1-4-5 (Fab, V domains shown, Maturated 005-C04 variant; Fab in E. coli supernatant, flag-detected) VH: EVQLLESGGGLVQPGGSLRLSCAASGFTFSSYWWHWVRQAPGKGLEWVSDISRASSYTNYADSVKGRFTISRDNSKNTLYLQMNSLRAEDTAVYYCARGLDARRMDYWGQGTLVTVTS VL: QSVLTQPPSASGTPGQRVTISCTGSSSNIGYGYVVHWYQQLPGTAPKLLIYRNNWRPSGVPDRFSGSKSGTSASLAISGLRSEDEADYYCAAWDDSLNGWLFGGGTKLTVLG
binds	005-C04-53-31-7 (Fab, V domains shown, Maturated 005-C04 variant; Fab in E. coli supernatant, flag-detected) VH: EVQLLESGGGLVQPGGSLRLSCAASGFTFSSYWMHWVRQAPGKGLEWVSDISSLSSYTNYADSVKGRFTISRDNSKNTLYLQMNSLRAEDTAVYYCARGLDARRMDYWGQGTLVTVTS VL: QSVLTQPPSASGTPGQRVTISCTGSSSNIGAGYVVHWYQQLPGTAPKLLIYRNNQRPSGVPDRFSGSKSGTSASLAISGLRSEDEADYYCAAWDDSLNGWLFGGGTKLTVLG
binds	005-C04-44-25-1 (Fab, V domains shown, Maturated 005-C04 variant; Fab in E. coli supernatant, flag-detected) VH: EVQLLESGGGLVQPGGSLRLSCAASGFTFSSYWNHWVRQAPGKGLEWVSDISSASSYTNYADSVKGRFTISRDNSKNTLYLQMNSLRAEDTAVYYCARGLDARRMDYWGQGTLVTVTS VL: QSVLTQPPSASGTPGQRVTISCTGSSSNIGAGYVVHWYQQLPGTAPKLLIYRNNQRPSGVPDRFSGSKSGTSASLAISGLRSEDEADYYCAAWDDSLNGWLFGGGTKLTVLG
binds	005-C04-45-1 (Fab, V domains shown, Maturated 005-C04 variant; Fab in E. coli supernatant, flag-detected) VH: EVQLLESGGGLVQPGGSLRLSCAASGFTFSSYWNHWVRQAPGKGLEWVSDISRASSYTNYADSVKGRFTISRDNSKNTLYLQMNSLRAEDTAVYYCARGLDARRMDYWGQGTLVTVTS VL: QSVLTQPPSASGTPGQRVTISCTGSSSNIGYGYVVHWYQQLPGTAPKLLIYRNNVRPSGVPDRFSGSKSGTSASLAISGLRSEDEADYYCAAWDDSLNGWLFGGGTKLTVLG
binds	005-C04-37-2 (Fab, V domains shown, Maturated 005-C04 variant; Fab in E. coli supernatant, flag-detected) VH: EVQLLESGGGLVQPGGSLRLSCAASGFTFSSYWWHWVRQAPGKGLEWVSDISSLSSYTGYADSVKGRFTISRDNSKNTLYLQMNSLRAEDTAVYYCARGLDARRMDYWGQGTLVTVTS VL: QSVLTQPPSASGTPGQRVTISCTGSSSNIGYGYVVHWYQQLPGTAPKLLIYRNNWRPSGVPDRFSGSKSGTSASLAISGLRSEDEADYYCAAWDDSLNGWLFGGGTKLTVLG

Second part, the binder before the results:

Binder	binding result
005-C04-29-17-7 (Fab, V domains shown, Maturated 005-C04 variant; Fab in E. coli supernatant, flag-detected) VH: EVQLLESGGGLVQPGGSLRLSCAASGFTFSSYWMHWVRQAPGKGLEWVSDISSASSYTNYADSVKGRFTISRDNSKNTLYLQMNSLRAEDTAVYYCARGLDARRMDYWGQGTLVTVTS VL: QSVLTQPPSASGTPGQRVTISCTGSSSNIGAGYVVHWYQQLPGTAPKLLIYRNNQRPSGVPDRFSGSKSGTSASLAISGLRSEDEADYYCAAWDDSLLGWLFGGGTKLTVLG	binds
005-C04-L2-1-3-2 (Fab, V domains shown, Maturated 005-C04 variant; Fab in E. coli supernatant, flag-detected) VH: EVQLLESGGGLVQPGGSLRLSCAASGFTFSSYWNHWVRQAPGKGLEWVSDMARLSSYTNYADSVKGRFTISRDNSKNTLYLQMNSLRAEDTAVYYCARGLDARRMDYWGQGTLVTVTS VL: QSVLTQPPSASGTPGQRVTISCTGSSSNIGAGYVVHWYQQLPGTAPKLLIYRNNVRQSGVPDRFSGSKSGTSASLAISGLRSEDEADYYCAAWDDSLNGWLFGGGTKLTVLG	binds
005-C04-51-29-0 (Fab, V domains shown, Maturated 005-C04 variant; Fab in E. coli supernatant, flag-detected) VH: EVQLLESGGGLVQPGGSLRLSCAASGFTFSSYWMHWVRQAPGKGLEWVSDIASASSYTNYADSVKGRFTISRDNSKNTLYLQMNSLRAEDTAVYYCARGLDARRMDYWGQGTLVTVTS VL: QSVLTQPPSASGTPGQRVTISCTGSSSNIGAGYVVHWYQQLPGTAPKLLIYRNNQRPSGVPDRFSGSKSGTSASLAISGLRSEDEADYYCAAWDDSLNGWLFGGGTKLTVLG	binds
005-C04-58-33-1 (Fab, V domains shown, Maturated 005-C04 variant; Fab in E. coli supernatant, flag-detected) VH: EVQLLESGGGLVQPGGSLRLSCAASGFTFSSYWMHWVRQAPGKGLEWVSDISSASSYTGYADSVKGRFTISRDNSKNTLYLQMNSLRAEDTAVYYCARGLDARRMDYWGQGTLVTVTS VL: QSVLTQPPSASGTPGQRVTISCTGSSSNIGAGYVVHWYQQLPGTAPKLLIYRNNQRPSGVPDRFSGSKSGTSASLAISGLRSEDEADYYCAAWDDSLNGWLFGGGTKLTVLG	binds
005-C04-46-1 (Fab, V domains shown, Maturated 005-C04 variant; Fab in E. coli supernatant, flag-detected) VH: EVQLLESGGGLVQPGGSLRLSCAASGFTFSSYWNHWVRQAPGKGLEWVSDMSRLSPYTNYADSVKGRFTISRDNSKNTLYLQMNSLRAEDTAVYYCARGLDARRMDYWGQGTLVTVTS VL: QSVLTQPPSASGTPGQRVTISCTGSSSNIGYGYVVHWYQQLPGTAPKLLIYRNNVRQSGVPDRFSGSKSGTSASLAISGLRSEDEADYYCAAWDDSLNGWLFGGGTKLTVLG	binds
005-C04-42-1 (Fab, V domains shown, Maturated 005-C04 variant; Fab in E. coli supernatant, flag-detected) VH: EVQLLESGGGLVQPGGSLRLSCAASGFTFSSYWNHWVRQAPGKGLEWVSDISRLSSYTNYADSVKGRFTISRDNSKNTLYLQMNSLRAEDTAVYYCARGLDARRMDYWGQGTLVTVTS VL: QSVLTQPPSASGTPGQRVTISCTGSSSNIGYGYVVHWYQQLPGTAPKLLIYRNNQRQSGVPDRFSGSKSGTSASLAISGLRSEDEADYYCAAWDDSLNGWLFGGGTKLTVLG	binds
005-C04-47-3 (Fab, V domains shown, Maturated 005-C04 variant; Fab in E. coli supernatant, flag-detected) VH: EVQLLESGGGLVQPGGSLRLSCAASGFTFSSYWWHWVRQAPGKGLEWVSDISRASPYTNYADSVKGRFTISRDNSKNTLYLQMNSLRAEDTAVYYCARGLDARRMDYWGQGTLVTVTS VL: QSVLTQPPSASGTPGQRVTISCTGSSSNIGYGYVVHWYQQLPGTAPKLLIYRNNQRPSGVPDRFSGSKSGTSASLAISGLRSEDEADYYCAAWDDSLNGWLFGGGTKLTVLG	binds
005-C04-52-29-0 (Fab, V domains shown, Maturated 005-C04 variant; Fab in E. coli supernatant, flag-detected) VH: EVQLLESGGGLVQPGGSLRLSCAASGFTFSSYWMHWVRQAPGKGLEWVSDISWASSYTNYADSVKGRFTISRDNSKNTLYLQMNSLRAEDTAVYYCARGLDARRMDYWGQGTLVTVTS VL: QSVLTQPPSASGTPGQRVTISCTGSSSNIGAGYVVHWYQQLPGTAPKLLIYRNNQRPSGVPDRFSGSKSGTSASLAISGLRSEDEADYYCAAWDDSLNGWLFGGGTKLTVLG	binds
005-C04-36-0 (Fab, V domains shown, Maturated 005-C04 variant; Fab in E. coli supernatant, flag-detected) VH: EVQLLESGGGLVQPGGSLRLSCAASGFTFSSYWWHWVRQAPGKGLEWVSDIARASPYTNYADSVKGRFTISRDNSKNTLYLQMNSLRAEDTAVYYCARGLDARRMDYWGQGTLVTVTS VL: QSVLTQPPSASGTPGQRVTISCTGSSSNIGYGYVVHWYQQLPGTAPKLLIYRNNVRPSGVPDRFSGSKSGTSASLAISGLRSEDEADYYCAAWDDSLNGWLFGGGTKLTVLG	binds
005-C04-L2-1-2-3 (Fab, V domains shown, Maturated 005-C04 variant; Fab in E. coli supernatant, flag-detected) VH: EVQLLESGGGLVQPGGSLRLSCAASGFTFSSYWNHWVRQAPGKGLEWVSDMARASPYTGYADSVKGRFTISRDNSKNTLYLQMNSLRAEDTAVYYCARGLDARRMDYWGQGTLVTVTS VL: QSVLTQPPSASGTPGQRVTISCTGSSSNIGAGYVVHWYQQLPGTAPKLLIYRNNWRPSGVPDRFSGSKSGTSASLAISGLRSEDEADYYCAAWDDSLNGWLFGGGTKLTVLG	binds
005-C04-55-32-0 (Fab, V domains shown, Maturated 005-C04 variant; Fab in E. coli supernatant, flag-detected) VH: EVQLLESGGGLVQPGGSLRLSCAASGFTFSSYWMHWVRQAPGKGLEWVSDISSASPYTNYADSVKGRFTISRDNSKNTLYLQMNSLRAEDTAVYYCARGLDARRMDYWGQGTLVTVTS VL: QSVLTQPPSASGTPGQRVTISCTGSSSNIGAGYVVHWYQQLPGTAPKLLIYRNNQRPSGVPDRFSGSKSGTSASLAISGLRSEDEADYYCAAWDDSLNGWLFGGGTKLTVLG	binds
